Laboratory results from US20060216339.

Tests used:
[1] = target: T1, peptide A, RKISASGP (type-I PKG peptide substrate)
T1 chain: RKISASGP

[2] = target: T2, peptide C, QKRPRRKDTP (type-II PKG substrate)
T2 chain: QKRPRRKDTP

[3] = target: T3, BPDEtide, RKISASEFDRPLR (peptide B, type-I PKG peptide substrate)
T3 chain: RKISASEFDRPLR

[4] = target: T4, peptide D, RKRSRAE (H2Btide, type-I PKG peptide substrate)
T4 chain: RKRSRAE

[5] = target: purified recombinant VASP-GST (vasodilator-stimulated phosphoprotein with C-terminal GST epitope tag), P70460
purified recombinant VASP-GST (vasodilator-stimulated phosphoprotein with C-terminal GST epitope tag), P70460, sequence (P70460 whole entry): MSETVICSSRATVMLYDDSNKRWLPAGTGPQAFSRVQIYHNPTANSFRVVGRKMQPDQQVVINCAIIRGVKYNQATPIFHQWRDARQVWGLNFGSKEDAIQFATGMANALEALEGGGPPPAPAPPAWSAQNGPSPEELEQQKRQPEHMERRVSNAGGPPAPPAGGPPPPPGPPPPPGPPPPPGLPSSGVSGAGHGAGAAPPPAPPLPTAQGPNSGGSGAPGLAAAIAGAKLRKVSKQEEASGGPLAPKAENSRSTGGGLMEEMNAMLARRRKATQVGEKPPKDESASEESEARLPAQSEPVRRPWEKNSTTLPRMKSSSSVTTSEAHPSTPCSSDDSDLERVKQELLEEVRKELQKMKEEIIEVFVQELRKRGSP

[6] = target: recombinant mammalian ERK2 (MAPK p42 protein, bacterial recombinant, already containing phospho-tyrosine-185)
recombinant mammalian ERK2 (MAPK p42 protein, bacterial recombinant, already containing phospho-tyrosine-185), sequence (P28482 2-360): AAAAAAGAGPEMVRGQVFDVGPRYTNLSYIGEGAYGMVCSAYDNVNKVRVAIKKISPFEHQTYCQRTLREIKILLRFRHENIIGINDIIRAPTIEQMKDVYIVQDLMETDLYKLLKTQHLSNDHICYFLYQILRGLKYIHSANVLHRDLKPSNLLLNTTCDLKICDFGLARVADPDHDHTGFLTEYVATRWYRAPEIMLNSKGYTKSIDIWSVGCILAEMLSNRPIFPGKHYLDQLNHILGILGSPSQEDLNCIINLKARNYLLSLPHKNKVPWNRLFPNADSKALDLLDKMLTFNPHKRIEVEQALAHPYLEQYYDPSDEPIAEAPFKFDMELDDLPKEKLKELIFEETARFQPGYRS

B1: recombinant bovine PKG type-Iα (protein)
chain: MSELEEDFAKILMLKEERIKELEKRLSEKEEEIQELKRKLHKCQSVLPVPSTHIGPRTTRAQGISAEPQTYRSFHDLRQAFRKFTKSERSKDLIKEAILDNDFMKNLELSQIQEIVDCMYPVEYGKDSCIIKEGDVGSLVYVMEDGKVEVTKEGVKLCTMGPGKVFGELAILYNCTRTATVKTLVNVKLWAIDRQCFQTIMMRTGLIKHTEYMEFLKSVPTFQSLPEEILSKLADVLEETHYENGEYIIRQGARGDTFFIISKGKVNVTREDSPNEDPVFLRTLGKGDWFGEKALQGEDVRTANVIAAEAVTCLVIDRDSFKHLIGGLDDVSNKAYEDAEAKAKYEAEAAFFANLKLSDFNIIDTLGVGGFGRVELVQLKSEESKTFAMKILKKRHIVDTRQQEHIRSEKQIMQGAHSDFIVRLYRTFKDSKYLYMLMEACLGGELWTILRDRGSFEDSTTRFYTACVVEAFAYLHSKGIIYRDLKPENLILDHRGYAKLVDFGFAKKIGFGKKTWTFCGTPEYVAPEIILNKGHDISADYWSLGILMYELLTGSPPFSGPDPMKTYNIILRGIDMIEFPKKIAKNAANLIKKLCRDNPSERLGNLKNGVKDIQKHKWFEGFNWEGLRKGTLTPPIIPSVASPTDTSNFDSFPEDNDEPPPDDNSGWDIDF
kinase activity on peptide substrates [1]: both kinases readily phosphorylated several PKG peptide substrates | kinase activity on peptide substrates [2]: neither kinase phosphorylated peptide C | kinase activity on peptide substrates [3]: both kinases readily phosphorylated several PKG peptide substrates | kinase activity on peptide substrates [4]: both kinases readily phosphorylated several PKG peptide substrates | phosphorylation of VASP at serine 239 (Western blot with anti-phospho-VASP (Ser 239)) [5]: both the bovine and Aplysia kinases phosphorylated this site

B2: recombinant His-apPKG (Aplysia protein kinase G with N-terminal His tag, expressed in baculovirus/Sf9 cells) (protein)
chain: MGNGASSNTHFTIDGESMDVHKVKALVPELRHELRRRDKIIEQYDSQVRQKDELLKEKEAEIARLKEEVHKLKSVLQLKVDTLKAQESKPDLLSTIDENQAEPTAPRGPAKKQGVSGESPSSKTLGYVDLTHHEKDFKSKQLIKDAILSNEFIKVLAATQLREIIDCMYEKRVPKACYIIKGGERGEHLYVCADGLLEVHKEDKRLGEIKSGGLFGELAILYNCKRTASVKAVTHTTLWVLDRRVFQAIMMKTGLQRREENMAFLKSVPLLKNLPSDKLAKMSDVLEYDFFHENEYIIREGAAGDTFFILNKGEVKVTQKIAGHAEPKEVRRLKRGDYFGEKALLSEDRRTANVIALPPGVECLTVDRESFTQFVGDLNELRNKDYGDEARGAERRSGSDSTVSPVSERPVAKEFENCSLDDLQLVTTLGMGGFGRVELVQLSKEKGKTFALKCLKKKHIVETRQQEHIYSEKKIMMEADSPFITKLHKTFRDRKYVYMLMEVCLGGELWTILRDRGNFDDLTARFCVACVLEAFSYLHAKGIIYRDLKPENLLLDARGYVKLVDFGFAKKIGVGKKTWTFCGTPEYVAPEIILNKGHDHSADYWSLGILMYELLNGTPPFSGSDPMRTYNIILKGIDHIEFPKKISRSAHVLIKKLCRDNPMERLGYGKNGISDIRKNKWFQGFDWDGLMDLTLTPPIVPKVKNPTDTSNFDSYPRDMDIAADELSGWDIDF
kinase activity on peptide substrates [1]: both kinases readily phosphorylated several PKG peptide substrates | kinase activity on peptide substrates [2]: neither kinase phosphorylated peptide C | dual phosphorylation of ERK2 by apPKG in the presence of 1 µg of BPDEtide (Western blot with Ab^pTpYmapk) [3]: The activation was specific, because it was reduced in the presence of BPDEtide | kinase activity (transfer of ^32P from [^32P]ATP to BPDEtide) [3]: Inactive apPKG was activated by 100 nM 8-Br-cGMP and readily phosphorylated BPDEtide | kinase activity on peptide substrates [3]: both kinases readily phosphorylated several PKG peptide substrates | kinase activity on peptide substrates [4]: both kinases readily phosphorylated several PKG peptide substrates | ERK2 activity (production of phospho-Elk1) compared with activation by MEK1 [6]: apPKG produced an ERK2 with similar activity as that produced by MEK1 | activation of ERK2 (phosphorylation of Elk1 by ERK2 after incubation with apPKG) [6]: apPKG activated ERK2 to phosphorylate Elk1 | phosphorylation of ERK2 at T183 (Western blot with antibody to ERKpT183) [6]: there was an increase in the phosphorylation of the -T- in the presence of apPKG | phosphorylation of ERK2 at Y185 (Western blot with antibody to ERKpY185) [6]: There was no increase in phosphorylation of the -Y- when ERK2 was incubated with apPKG | phosphorylation of VASP at serine 239 (Western blot with anti-phospho-VASP (Ser 239)) [5]: both the bovine and Aplysia kinases phosphorylated this site
